B1: chimeric nanobody 3-D7 (Fc fusion)
VHH: QRQLVESGGGLVQPGGSLRLSCAASGFLLDYYVIGWFRQAPGKEREGVSCISGSDRSTYYADSVKGRFTISRDNAKNTVYLQMNSLKPEDTAVYFCAADPSPVTVQAMCLPRFPVPYWGQGTQVTVST
notes: Human-alpaca chimeric antibody (VHH on hIgG1 Fc); Only the VHH is tied to the tested molecule; 37-39 exist for 3-D7-FC1/FC2/FC3; also called original antibody 3-D7
B2: chimeric nanobody 5-E11 (Fc fusion)
VHH: ALQLVESGGGLVQPGGSLRLSCEVSGFTLDYYNIGWFRQAPGKEREGVSCSSNSGGSTYYADSVKGRFTISRDNAKNTVYLQMNSLKPEDTGVYYCAAYRGWHPSLDARVYDYWGQGTEVTVSS
notes: Human-alpaca chimeric antibody (VHH on hIgG1 Fc); Only the VHH is tied to the tested molecule; also called original antibody 5-E11

How the values were obtained:
[1] = biological target: T1, CD73 on the surface of human cells (human, UniProt P21589 27-549); test: Flow cytometry on NCI-H1299 cells
T1 construct: whole, on cells; The cell line of each value is named under assay or readout; also called CD73 on the surface of tumor cells; CD73 enzyme on the surface of MDA-MB-231 cells
T1 sequence (looked up): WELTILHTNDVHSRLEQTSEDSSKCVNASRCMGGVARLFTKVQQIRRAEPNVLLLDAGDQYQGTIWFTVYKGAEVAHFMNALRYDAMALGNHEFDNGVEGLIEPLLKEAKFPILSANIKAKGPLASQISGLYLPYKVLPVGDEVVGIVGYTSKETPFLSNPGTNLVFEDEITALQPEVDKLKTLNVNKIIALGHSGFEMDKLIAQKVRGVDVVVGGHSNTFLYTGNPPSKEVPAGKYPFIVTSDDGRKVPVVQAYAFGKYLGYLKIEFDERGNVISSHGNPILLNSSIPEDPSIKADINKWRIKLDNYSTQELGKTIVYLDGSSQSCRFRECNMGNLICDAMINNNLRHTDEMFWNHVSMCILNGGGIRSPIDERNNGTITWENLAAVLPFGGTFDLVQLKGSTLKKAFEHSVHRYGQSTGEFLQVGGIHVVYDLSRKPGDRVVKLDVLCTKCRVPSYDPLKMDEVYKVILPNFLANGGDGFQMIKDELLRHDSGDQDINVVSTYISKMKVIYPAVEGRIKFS
Experimental: 100 μL of the test antibodies diluted from 10 μg/mL to 0.016 μg/mL in a 5-fold gradient were used as the primary antibodies, and were mixed with 1×10⁵ tumor cells suspended in 100 μL RPMI-1640 serum-free medium to make a final concentration of 5 μg/mL diluted to 0.008 μg/mL, and then incubated at 4° C. for 1 h. The cells were washed twice with PBS to remove unbound primary antibodies, and then the target cells were incubated with 200 μLPE-labeled secondary antibody at 2 μg/mL at 4° C. for 30 min. The cells were washed twice with PBS to remove unbound secondary antibodies, and finally the cells were resuspended in 200 μL PBS. The binding affinity of the test antibodies to CD73 on the surface of the corresponding cells was measured by flow cytometry.
The binding affinity of the humanized antibodies to NCI-H1299 cells was detected according to the method for determining the binding affinity of CD73 on the surface of tumor cells in Example 5.

[2] = biological target: T2, extracellular domain of human CD73 protein, C-terminus polyhistidine-tagged (human, UniProt P21589 27-547); test: ForteBio Octet (the filing calls it SPR), by the method of Example 2 according to the text; sheet prints 'Loading Sample ID: FDYKSD-02-His'; traces labelled 25, 12.5, 6.25, 3.13
T2 construct: also the immunogen; also called CD73-ECD; human CD73-ECD
T2 sequence: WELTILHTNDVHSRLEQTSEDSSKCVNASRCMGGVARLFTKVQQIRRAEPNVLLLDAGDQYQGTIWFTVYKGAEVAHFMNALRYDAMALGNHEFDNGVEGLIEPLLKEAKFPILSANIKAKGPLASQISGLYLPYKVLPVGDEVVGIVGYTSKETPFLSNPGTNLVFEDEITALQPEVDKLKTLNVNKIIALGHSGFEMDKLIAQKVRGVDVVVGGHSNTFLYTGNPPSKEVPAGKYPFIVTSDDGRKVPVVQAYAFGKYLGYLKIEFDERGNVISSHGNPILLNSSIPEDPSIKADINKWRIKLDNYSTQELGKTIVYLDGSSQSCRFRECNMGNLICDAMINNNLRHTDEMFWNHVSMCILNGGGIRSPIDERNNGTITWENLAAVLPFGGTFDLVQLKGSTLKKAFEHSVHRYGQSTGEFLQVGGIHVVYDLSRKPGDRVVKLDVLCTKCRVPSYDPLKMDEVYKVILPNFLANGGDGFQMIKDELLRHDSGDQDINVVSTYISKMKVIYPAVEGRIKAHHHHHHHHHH

[3] = biological target: T2, extracellular domain of human CD73 …; test: ELISA, coated CD73-ECD, method of Example 3
Experimental: (§1) The CD73 protein extracellular region (CD73-ECD) was diluted to 1 μg/mL using the coating solution, and an ELISA plate was coated at 100 μL/well at 4° C. overnight. Excess antigens were washed away, and the plate was blocked with 1% BSA at room temperature for 2 hours. Then, 5-fold gradient dilutions of each monoclonal antibody were added at 100 μL/well and incubated at room temperature for 1 hour. Unbound antibodies were washed away, and an appropriate concentration of Staphylococcal protein A labeled with horseradish peroxidase was added at 100 μL/well and incubated at room temperature for 0.5 hours. Unbound secondary antibodies were washed away, and TMB color development solution was added to react for about 15 minutes. 1M HCL was added at 50 µL/well to terminate the color development reaction, and then the absorbance was measured at 450 nm and the data was analyzed.
(§2) Based on the above mutants, 5-E11ASCS was designed and prepared, and the CD73 antigen ELISA binding affinity test was performed according to the method of Example 3.

[4] = biological target: T2, extracellular domain of human CD73 …; test: ELISA on coated human CD73-ECD (the text rounds this value to 0.05 µg/mL)
Experimental: as §1, §2

[5] = biological target: T2, extracellular domain of human CD73 …; test: ELISA on CD73-ECD, 4 µL supernatant of antibody expression, second of two readings; PBS 0.19, 0.18
[6] = biological target: T2, extracellular domain of human CD73 …; test: ELISA on CD73-ECD, 0.8 µL supernatant of antibody expression, first of two readings; PBS 0.19, 0.18
Experimental: as §1
(§3) CD73 antigen ELISA binding affinity test was performed according to the method of Example 3.

[7] = biological target: T2, extracellular domain of human CD73 …; test: ELISA on CD73-ECD, 100 µL supernatant of antibody expression, first of two readings; PBS 0.19, 0.18
Experimental: as §1, §3

[8] = biological target: T2, extracellular domain of human CD73 …; test: ELISA on CD73-ECD, 100 µL supernatant of antibody expression, second of two readings; PBS 0.19, 0.18

Binder | Max MFI [1] [MFI] | koff [2] [s⁻¹] | kon [2] [M⁻¹ s⁻¹] | EC50 [3] [µg/mL] | EC50 [4] [µg/mL] | ELISA reading (not named on the sheet) [5] | ELISA reading (not named on the sheet) [6] | ELISA reading (not named on the sheet) [7] | ELISA reading (not named on the sheet) [8]
B1 | 105000 | 0.000588 | 1.25e+06 | – | – | – | – | – | –
B2 | – | – | – | 0.05 | 0.0536 | 4.17 | 4.18 | 4.33 | 4.23
